Patent US7351689

T1: zcyto20 (IL-28A), human (human) (UniProt Q8IZJ0)
T1 sequence: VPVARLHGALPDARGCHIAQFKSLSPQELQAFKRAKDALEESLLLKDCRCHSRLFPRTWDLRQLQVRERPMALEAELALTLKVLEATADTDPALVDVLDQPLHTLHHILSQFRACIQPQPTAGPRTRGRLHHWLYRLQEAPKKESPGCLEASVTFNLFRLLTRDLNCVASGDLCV

T2: zcyto24 (mouse IL-28) (mouse) (UniProt Q4VK74)
T2 sequence: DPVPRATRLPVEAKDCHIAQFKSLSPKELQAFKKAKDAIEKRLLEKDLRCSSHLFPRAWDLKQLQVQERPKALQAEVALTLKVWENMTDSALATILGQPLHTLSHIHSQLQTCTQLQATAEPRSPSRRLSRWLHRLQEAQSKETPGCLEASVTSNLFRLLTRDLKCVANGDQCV


Tests used:
Test in all cases: cell-based or functional assay
[1] = biological target: T1, zcyto20 (IL-28A), human (human)
[2] = biological target: zcyto21 (SEQ ID NO:15) (human) (UniProt Q8IU54)
[3] = biological target: T2, zcyto24 (mouse IL-28) (mouse)
[4] = biological target: human IL-28 receptor on transfected 293 HEK cells (IL-28 receptor alpha subunit with endogenous CRF2-4) (human)
Chain of human IL-28 receptor on transfected 293 HEK cells (IL-28 receptor alpha subunit with endogenous CRF2-4) (human) (Q8IU57 whole entry, chain 1 of 2): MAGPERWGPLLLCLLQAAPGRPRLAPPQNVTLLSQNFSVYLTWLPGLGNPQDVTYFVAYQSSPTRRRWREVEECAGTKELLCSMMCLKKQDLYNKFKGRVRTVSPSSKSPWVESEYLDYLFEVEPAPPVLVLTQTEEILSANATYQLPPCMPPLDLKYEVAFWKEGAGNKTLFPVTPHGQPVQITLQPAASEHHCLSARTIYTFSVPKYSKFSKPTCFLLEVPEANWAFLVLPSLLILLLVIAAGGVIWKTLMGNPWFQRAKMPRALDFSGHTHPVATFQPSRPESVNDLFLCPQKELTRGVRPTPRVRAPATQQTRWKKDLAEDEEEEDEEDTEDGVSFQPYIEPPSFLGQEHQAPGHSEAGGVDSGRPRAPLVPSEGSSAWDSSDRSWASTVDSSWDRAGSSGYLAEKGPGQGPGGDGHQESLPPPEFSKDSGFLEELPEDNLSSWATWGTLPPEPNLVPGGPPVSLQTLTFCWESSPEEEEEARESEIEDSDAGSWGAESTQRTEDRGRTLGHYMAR
Chain of human IL-28 receptor on transfected 293 HEK cells (IL-28 receptor alpha subunit with endogenous CRF2-4) (human) (Q08334 whole entry, chain 2 of 2, further chain): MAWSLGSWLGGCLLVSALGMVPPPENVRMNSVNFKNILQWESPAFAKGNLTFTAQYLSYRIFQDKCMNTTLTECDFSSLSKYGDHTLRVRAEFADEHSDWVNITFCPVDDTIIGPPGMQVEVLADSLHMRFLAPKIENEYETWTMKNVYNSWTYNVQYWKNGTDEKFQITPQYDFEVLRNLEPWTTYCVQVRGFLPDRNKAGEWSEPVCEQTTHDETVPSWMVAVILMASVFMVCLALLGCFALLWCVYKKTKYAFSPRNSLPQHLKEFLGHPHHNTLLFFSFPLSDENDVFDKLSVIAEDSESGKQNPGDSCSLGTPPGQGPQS

Chain of zcyto21 (SEQ ID NO:15) (human) (Q8IU54 other isoform, or with tags, fused parts or gaps): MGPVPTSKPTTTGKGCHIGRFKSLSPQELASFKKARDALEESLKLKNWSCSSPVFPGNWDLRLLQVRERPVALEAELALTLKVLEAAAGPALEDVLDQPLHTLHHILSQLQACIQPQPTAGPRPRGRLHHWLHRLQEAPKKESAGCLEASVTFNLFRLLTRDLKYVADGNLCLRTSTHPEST

Binder | Percent Inhibition of Ligand-induced Interferon Stimulated Response Element (ISRE) Signaling by Soluble Receptors (10 ng/ml ligand, 10 micrograms/ml soluble receptor) [1] [%] | Percent Inhibition of Ligand-induced Interferon Stimulated Response Element (ISRE) Signaling by Soluble Receptors (10 ng/ml ligand, 10 micrograms/ml soluble receptor) [2] [%] | Percent Inhibition of Ligand-induced Interferon Stimulated Response Element (ISRE) Signaling by Soluble Receptors (10 ng/ml ligand, 10 micrograms/ml soluble receptor) [3] [%] | ISRE Signaling of Transfected 293 Cells Following Class II Cytokine Stimulation (Fold Induction), ISRE-Luc./IL-28R, IL-28B 125 ng/ml (fold induction) [4]
IL-28B (SEQ ID NO: 6) (ligand) VPVARLRGALPDARGCHIAQFKSLSPQELQAFKRAKDALEESLLLKDCKCRSRLFPRTWDLRQLQVRERPVALEAELALTLKVLEATADTDPALGDVLDQPLHTLHHILSQLRACIQPQPTAGPRTRGRLHHWLHRLQEAPKKESPGCLEASVTFNLFRLLTRDLNCVASGDLCV | – | – | – | 104
human zcytor19-Fc homodimer (Fc fusion, not shown: a dimerising Fc or GST) RPRLAPPQNVTLLSQNFSVYLTWLPGLGNPQDVTYFVAYQSSPTRRRWREVEECAGTKELLCSMMCLKKQDLYNKFKGRVRTVSPSSKSPWVESEYLDYLFEVEPAPPVLVLTQTEEILSANATYQLPPCMPPLDLKYEVAFWKEGAGNKTLFPVTPHGQPVQITLQPAASEHHCLSARTIYTFSVPKYSKFSKPTCFLLEVPEANWA | 92 | 45 | 90 | –
human CRF2-4-Fc homodimer (Fc fusion, from a related filing, left off: a dimerising Fc or GST) MVPPPENVRMNSVNFKNILQWESPAFAKGNLTFTAQYLSYRIFQDKCMNTTLTECDFSSLSKYGDHTLRVRAEFADEHSDWVNITFCPVDDTIIGPPGMQVEVLADSLHMRFLAPKIENEYETWTMKNVYNSWTYNVQYWKNGTDEKFQITPQYDFEVLRNLEPWTTYCVQVRGFLPDRNKAGEWSEPVCEQTTHDETVPS | 80 | 79 | 82 | –

Second part, the binder after the results:

Percent Inhibition of Ligand-induced Interferon Stimulated Response Element (ISRE) Signaling by Soluble Receptors (10 ng/ml ligand, 10 micrograms/ml soluble receptor) [1] [%] | Percent Inhibition of Ligand-induced Interferon Stimulated Response Element (ISRE) Signaling by Soluble Receptors (10 ng/ml ligand, 10 micrograms/ml soluble receptor) [2] [%] | Percent Inhibition of Ligand-induced Interferon Stimulated Response Element (ISRE) Signaling by Soluble Receptors (10 ng/ml ligand, 10 micrograms/ml soluble receptor) [3] [%] | ISRE Signaling of Transfected 293 Cells Following Class II Cytokine Stimulation (Fold Induction), ISRE-Luc./IL-28R, IL-28B 125 ng/ml (fold induction) [4] | Binder
91 | 103 | 89 | – | murine zcytor19-Ig homodimer (Fc fusion, mouse, UniProt Q8CGK5 21-227, looked up, not shown: a dimerising Fc or GST) RPRLAPPRNVTLFSQNFTVYLTWLPGLGSPPNVTYFVTYQSYIKTGWRPVEHCAGIKALVCPLMCLKKLNLYSKFKGRVQAASAHGRSPRVESRYLEYLFDVELAPPTLVLTQMEKILRVNATYQLPPCMPSLELKYQVEFWKEGLGSKTLFPDTPYGQPVQIPLQQGASRRHCLSARTVYTLIDIKYSQFSEPSCIFLEAPGDKRA
16 | 16 | 47 | – | human zcytor19-Fc/human CRF2-4-Fc heterodimer (Fc fusion, from a related filing, not shown: a dimerising Fc or GST, left off: a dimerising Fc or GST) chain 1: RPRLAPPQNVTLLSQNFSVYLTWLPGLGNPQDVTYFVAYQSSPTRRRWREVEECAGTKELLCSMMCLKKQDLYNKFKGRVRTVSPSSKSPWVESEYLDYLFEVEPAPPVLVLTQTEEILSANATYQLPPCMPPLDLKYEVAFWKEGAGNKTLFPVTPHGQPVQITLQPAASEHHCLSARTIYTFSVPKYSKFSKPTCFLLEVPEANWA chain 2: MVPPPENVRMNSVNFKNILQWESPAFAKGNLTFTAQYLSYRIFQDKCMNTTLTECDFSSLSKYGDHTLRVRAEFADEHSDWVNITFCPVDDTIIGPPGMQVEVLADSLHMRFLAPKIENEYETWTMKNVYNSWTYNVQYWKNGTDEKFQITPQYDFEVLRNLEPWTTYCVQVRGFLPDRNKAGEWSEPVCEQTTHDETVPS
